Patent publication US20240018502A1
Substitutions are numbered along the chain they refer to. Names may count otherwise.

B1: MTSP-1 protease domain F97S/F99L/C122S/G151N/Q175I/Q192T/D217T (enzyme)
chain: VVGGTDADEGEWPWQVSLHALGQGHICGASLISPNWLVSAAHCYIDDRGFRYSDPTQWTAFLGLHDQSQRSAPGVQERRLKRIISHPFFNDSTLDYDIALLELEKPAEYSSMVRPISLPDASHVFPAGKAIWVTGWGHTQYGGTNALILQKGEIRVINQTTCENLLPQIITPRMMCVGFLSGGVDSCTGDSGGPLSSVEADGRIFQAGVVSWGTGCAQRNKPGVYTRLPLFRDWIKENTGV
B2: MTSP-1 protease domain I41G/F97S/F99L/C122S/G151N/Q192T/D217T (enzyme)
chain: B1 chain with I26G, I169Q
B3: MTSP-1 protease domain I41D/F97R/F99L/C122S/G151Q/Q192V/D217L (enzyme)
chain: B1 chain with I26D, S92R, N145Q, I169Q, T188V, T214L
B4: MTSP-1 protease domain I41E/F97V/F99L/C122S/G151N/Q175L/Q192S/D217H (enzyme)
chain: B1 chain with I26E, S92V, I169L, T188S, T214H
B5: MTSP-1 protease domain I41E/F99L/C122S/G151N/Q175L/Q192S/D217H (enzyme)
chain: B1 chain with I26E, S92F, I169L, T188S, T214H
B6: MTSP-1 protease domain I41D/F97R/F99L/C122S/G151Q/Q175R/D217L (enzyme)
chain: B1 chain with I26D, S92R, N145Q, I169R, T188Q, T214L
B7: MTSP-1 protease domain I41E/F97V/F99L/C122S/Q175L/Q192S/D217H (enzyme)
chain: B1 chain with I26E, S92V, N145G, I169L, T188S, T214H
B8: MTSP-1 protease domain I41D/F99L/C122S/G151N/Q175S/Q192T/D217A (enzyme)
chain: B1 chain with I26D, S92F, I169S, T214A
B9: MTSP-1 protease domain I41D/F97T/F99L/C122S/Q175S/Q192T/D217A (enzyme)
chain: B1 chain with I26D, S92T, N145G, I169S, T214A
B10: MTSP-1 protease domain I41G/F97S/F99L/C122S/G151N/Q175I/Q192T (enzyme)
chain: B1 chain with I26G, T214D
B11: MTSP-1 protease domain I41D/F97T/F99L/C122S/G151N/Q175S/Q192T/D217A (enzyme)
chain: B1 chain with I26D, S92T, I169S, T214A
B12: MTSP-1 protease domain I41R/F97T/F99L/C122S/G151N/Q175T/Q192T/D217I (enzyme)
chain: B1 chain with I26R, S92T, I169T, T214I
B13: MTSP-1 protease domain I41E/F97V/F99L/C122S/G151N/Q175L/D217H (enzyme)
chain: B1 chain with I26E, S92V, I169L, T188Q, T214H
B14: MTSP-1 protease domain I41G/F99L/C122S/G151N/Q192T/D217T (enzyme)
chain: B1 chain with I26G, S92F, I169Q
B15: MTSP-1 protease domain I41D/F99L/C122S/G151Q/Q175R/Q192V/D217L (enzyme)
chain: B1 chain with I26D, S92F, N145Q, I169R, T188V, T214L
B16: MTSP-1 protease domain I41G/F97S/C122S/G151N/Q175I/Q192T/D217T (enzyme)
chain: B1 chain with I26G, L94F
B17: MTSP-1 protease domain I41D/F97R/F99L/C122S/Q175R/Q192V/D217L (enzyme)
chain: B1 chain with I26D, S92R, N145G, I169R, T188V, T214L
B18: MTSP-1 protease domain I41G/F99L/C122S/G151N/Q175I/Q192T/D217T (enzyme)
chain: B1 chain with I26G, S92F
B19: MTSP-1 protease domain I41E/F97V/F99L/C122S/G151N/Q175L/Q192S (enzyme)
chain: B1 chain with I26E, S92V, I169L, T188S, T214D
B20: MTSP-1 protease domain I41E/F97V/F99L/C122S/G151N/Q192S/D217H (enzyme)
chain: B1 chain with I26E, S92V, I169Q, T188S, T214H
B21: MTSP-1 protease domain I41T/F97H/F99L/C122S/G151N/Q175H/Q192V/D217L (enzyme)
chain: B1 chain with I26T, S92H, I169H, T188V, T214L
B22: MTSP-1 protease domain I41E/F97R/F99L/C122S/G151Q/Q175G/Q192T (enzyme)
chain: B1 chain with I26E, S92R, N145Q, I169G, T214D
B23: MTSP-1 protease domain I41G/F99L/C122S/Q175I/Q192T/D217T (enzyme)
chain: B1 chain with I26G, S92F, N145G
B24: MTSP-1 protease domain I41D/F97R/F99L/C122S/G151Q/Q175R/Q192V/D217L (enzyme)
chain: B1 chain with I26D, S92R, N145Q, I169R, T188V, T214L
B25: MTSP-1 protease domain I41G/F99L/C122S/G151N/Q175I/Q192T (enzyme)
chain: B1 chain with I26G, S92F, T214D
B26: MTSP-1 protease domain I41G/F97S/F99L/C122S/Q175I/Q192T/D217T (enzyme)
chain: B1 chain with I26G, N145G
B27: MTSP-1 protease domain F97V/F99L/C122S/G151N/Q175L/Q192S/D217H (enzyme)
chain: B1 chain with S92V, I169L, T188S, T214H
B28: MTSP-1 protease domain I41E/F97R/F99L/C122S/G151Q/Q175G/Q192T/D217V (enzyme)
chain: B1 chain with I26E, S92R, N145Q, I169G, T214V
B29: MTSP-1 protease domain F97R/F99L/C122S/G151Q/Q175R/Q192V/D217L (enzyme)
chain: B1 chain with S92R, N145Q, I169R, T188V, T214L
B30: MTSP-1 protease domain F97Q/F99L/C122S/Q175N/Q192V/D217G (enzyme)
chain: B1 chain with S92Q, N145G, I169N, T188V, T214G
B31: MTSP-1 protease domain I41E/F97A/F99M/C122S/G151N/Q175R/Q192S/D217E (enzyme)
chain: B1 chain with I26E, S92A, L94M, I169R, T188S, T214E
B32: MTSP-1 protease domain I41D/F97R/F99L/C122S/G151Q/Q175R/Q192V (enzyme)
chain: B1 chain with I26D, S92R, N145Q, I169R, T188V, T214D
B33: MTSP-1 protease domain I41G/F97S/F99L/C122S/G151N/Q175I/D217T (enzyme)
chain: B1 chain with I26G, T188Q
B34: MTSP-1 protease domain F97R/ins97aT/T98V/C122S/Q175M/Q192T/D217S (enzyme)
chain: VVGGTDADEGEWPWQVSLHALGQGHICGASLISPNWLVSAAHCYIDDRGFRYSDPTQWTAFLGLHDQSQRSAPGVQERRLKRIISHPFFNDRTVFDYDIALLELEKPAEYSSMVRPISLPDASHVFPAGKAIWVTGWGHTQYGGTGALILQKGEIRVINQTTCENLLPQMITPRMMCVGFLSGGVDSCTGDSGGPLSSVEADGRIFQAGVVSWGSGCAQRNKPGVYTRLPLFRDWIKENTGV
B35: MTSP-1 protease domain F97S/ins97aN/T98G/F99M/C122S/Q175T/Q192T/D217S (enzyme)
chain: B34 chain with R92S, T93N, V94G, F95M, M170T
B36: MTSP-1 protease domain F97V/ins97aH/T98R/F99L/C122S/Q175R/Q192G/D217S (enzyme)
chain: B34 chain with R92V, T93H, V94R, F95L, M170R, T189G
B37: MTSP-1 protease domain F97L/ins97aM/T98N/F99L/C122S/Q175T/Q192T/D217S (enzyme)
chain: B34 chain with R92L, T93M, V94N, F95L, M170T
B38: MTSP-1 Q38H/I41S/D60bT/F60eS/Y60gW/D96K/F97D/ins97aA/T98P/F99L/C122S/G151N/Q175L/Q192D (enzyme)
chain: VVGGTDADEGEWPWQVSLHALGHGHSCGASLISPNWLVSAAHCYIDTRGSRWSDPTQWTAFLGLHDQSQRSAPGVQERRLKRIISHPFFNKDAPLDYDIALLELEKPAEYSSMVRPISLPDASHVFPAGKAIWVTGWGHTQYGGTNALILQKGEIRVINQTTCENLLPQLITPRMMCVGFLSGGVDSCDGDSGGPLSSVEADGRIFQAGVVSWGDGCAQRNKPGVYTRLPLFRDWIKENTGV
B39: MTSP-1 Q38H/I41S/D60bT/F60eS/Y60gW/D96K/F97G/ins97aV/T98P/F99L/C122S/G151H/Q175L (enzyme)
chain: B38 chain with D92G, A93V, N146H, D189Q
B40: MTSP-1 Q38H/I41S/D60bT/F60eS/Y60gW/D96K/ins97aV/T98P/F99L/C122S/G151H/Q175L/Q192D (enzyme)
chain: B38 chain with D92F, A93V, N146H
B41: MTSP-1 Q38H/I41S/D60bT/F60eS/Y60gW/F97G/ins97aV/T98P/F99L/C122S/G151H/Q175L/Q192D (enzyme)
chain: B38 chain with K91D, D92G, A93V, N146H

Target: plasma purified human complement protein C3 (human) (UniProt P01024)
Sequence (P01024 23-667, chain 1 of 2): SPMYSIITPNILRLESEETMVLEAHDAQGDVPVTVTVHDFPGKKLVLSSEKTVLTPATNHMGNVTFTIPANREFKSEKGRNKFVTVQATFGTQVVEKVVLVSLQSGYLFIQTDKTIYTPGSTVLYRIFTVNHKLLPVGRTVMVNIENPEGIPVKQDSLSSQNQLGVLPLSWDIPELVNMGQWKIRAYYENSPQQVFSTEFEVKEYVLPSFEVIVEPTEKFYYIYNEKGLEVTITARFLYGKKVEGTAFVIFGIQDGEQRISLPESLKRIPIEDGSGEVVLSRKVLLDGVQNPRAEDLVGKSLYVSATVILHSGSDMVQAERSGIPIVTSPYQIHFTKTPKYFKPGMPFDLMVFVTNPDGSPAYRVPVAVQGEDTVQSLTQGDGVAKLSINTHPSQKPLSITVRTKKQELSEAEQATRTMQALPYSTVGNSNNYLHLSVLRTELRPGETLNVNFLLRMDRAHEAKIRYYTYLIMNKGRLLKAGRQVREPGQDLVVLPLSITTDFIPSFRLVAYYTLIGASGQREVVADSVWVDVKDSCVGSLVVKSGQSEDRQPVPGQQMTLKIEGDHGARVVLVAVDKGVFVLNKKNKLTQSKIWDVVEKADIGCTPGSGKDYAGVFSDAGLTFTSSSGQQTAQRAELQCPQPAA
Sequence (P01024 672-1663, chain 2 of 2): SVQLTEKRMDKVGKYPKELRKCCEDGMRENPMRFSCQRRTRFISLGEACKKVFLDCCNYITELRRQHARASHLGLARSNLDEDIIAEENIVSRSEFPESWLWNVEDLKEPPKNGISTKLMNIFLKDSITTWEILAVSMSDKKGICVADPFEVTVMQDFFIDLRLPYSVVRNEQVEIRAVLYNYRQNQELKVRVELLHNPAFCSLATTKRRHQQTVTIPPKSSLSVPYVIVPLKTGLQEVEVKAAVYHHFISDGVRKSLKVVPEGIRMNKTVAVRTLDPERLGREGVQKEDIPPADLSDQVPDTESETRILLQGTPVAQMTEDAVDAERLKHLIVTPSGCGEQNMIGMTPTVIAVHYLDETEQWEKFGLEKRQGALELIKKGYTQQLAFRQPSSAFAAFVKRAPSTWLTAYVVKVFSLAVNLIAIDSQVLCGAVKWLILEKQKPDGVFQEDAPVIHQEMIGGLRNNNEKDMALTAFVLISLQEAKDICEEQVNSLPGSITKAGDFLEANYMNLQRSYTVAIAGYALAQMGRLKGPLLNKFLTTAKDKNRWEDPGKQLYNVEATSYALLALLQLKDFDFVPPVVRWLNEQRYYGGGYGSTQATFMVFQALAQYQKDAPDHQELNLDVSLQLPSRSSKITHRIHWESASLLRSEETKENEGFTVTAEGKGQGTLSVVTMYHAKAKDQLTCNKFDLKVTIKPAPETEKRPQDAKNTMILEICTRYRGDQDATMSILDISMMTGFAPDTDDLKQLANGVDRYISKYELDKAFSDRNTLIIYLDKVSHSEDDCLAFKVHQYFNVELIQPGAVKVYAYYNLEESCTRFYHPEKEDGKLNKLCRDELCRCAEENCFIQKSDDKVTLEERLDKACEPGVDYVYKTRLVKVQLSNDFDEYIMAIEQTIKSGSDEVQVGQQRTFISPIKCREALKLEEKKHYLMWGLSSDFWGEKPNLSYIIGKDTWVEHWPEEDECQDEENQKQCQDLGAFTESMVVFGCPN
Experiment: cell-based or functional assay

Binder | EC50 hC3 cleavage | EC50 of hC3 cleavage
B1 | 524 nM | 
B2 | 105 nM | 
B3 | 42.3 nM | 
B4 | 49.4 nM | 
B5 | 27.1 nM | 
B6 | 19.4 nM | 
B7 | 44.3 nM | 
B8 | 30.5 nM | 
B9 | 52.1 nM | 
B10 | 97.7 nM | 
B11 | 70.9 nM | 
B12 | 159 nM | 
B13 | 16.5 nM | 
B14 | 44.7 nM | 
B15 | 31.6 nM | 
B16 | 860 nM | 
B17 | 50.6 nM | 
B18 | 108 nM | 
B19 | 51.2 nM | 
B20 | 42.2 nM | 
B21 | 131 nM | 

Binder | EC50 hC3 cleavage | EC50 of hC3 cleavage
B22 | 41.1 nM | 
B23 | 81.8 nM | 
B24 | 88 nM | 
B25 | 51.6 nM | 
B26 | 155 nM | 
B27 | 91.6 nM | 
B28 | 13 nM | 
B29 | 137 nM | 
B30 | 3670 nM | 
B31 | 485 nM | 
B32 | 79.4 nM | 
B33 | 107 nM | 
B34 | 42.2 nM | 
B35 | 2400 nM | 
B36 | 905 nM | 
B37 | 256 nM | 
B38 |  | 5.92 nM
B39 |  | 1.45 nM
B40 |  | 12 nM
B41 |  | 169 nM
